Several values for one entry are separate records, joined by “and”; a condition that tells them apart may be missing. Equal values may be shown once.
B1: MutS-CTD (His6-tagged C-terminal domain of E.coli MutS, residues 801-853) (domain or fragment, UniProt P23909 801-853, looked up)
chain: PNAAATQVDGTQMSLLSVPEETSPAVEALENLDPDSLTPRQALEWIYRLKSLV
B2: MutS-CTD^ΔHis6 (MutS-CTD with the N-terminal His6-tag removed by DAPase) (domain or fragment, E.coli, UniProt P23909 801-853, looked up)
chain: PNAAATQVDGTQMSLLSVPEETSPAVEALENLDPDSLTPRQALEWIYRLKSLV
B3: MutS-CTD^D835R (domain or fragment, E.coli, UniProt P23909 801-853, looked up)
chain: PNAAATQVDGTQMSLLSVPEETSPAVEALENLDPRSLTPRQALEWIYRLKSLV
B4: MutS800^CF (cysteine-free truncated E.coli MutS, residues 1-800, N-terminal His6-tagged) (domain or fragment, UniProt P23909 1-800, looked up)
chain: MSAIENFDAHTPMMQQYLRLKAQHPEILLFYRMGDFYELFYDDAKRASQLLDISLTKRGASAGEPIPMAGIPYHAVENYLAKLVNQGESVAIAEQIGDPATSKGPVERKVVRIVTPGTISDEALLQERQDNLLAAIWQDSKGFGYATLDISSGRFRLSEPADRETMAAELQRTNPAELLYAEDFAEMSLIEGRRGLRRRPLWEFEIDTARQQLNLQFGTRDLVGFGVENAPRGLSAAGALLQYAKDTQRTTLPHIRSITMEREQDSIIMDAATRRNLEITQNLAGGAENTLASVLDSTVTPMGSRMLKRWLHMPVRDTRVLLERQQTIGALQDFTAGLQPVLRQVGDLERILARLALRTARPRDLARMRHAFQQLPELRAQLETVDSAPVQALREKMGEFAELRDLLERAIIDTPPVLVRDGGVIASGYNEELDEWRALADGATDYLERLEVRERERTGLDTLKVGFNAVHGYYIQISRGQSHLAPINYMRRQTLKNAERYIIPELKEYEDKVLTSKGKALALEKQLYEELFDLLLPHLEALQQSASALAELDVLVNLAERAYTLNYTSPTFIDKPGIRITEGRHPVVEQVLNEPFIANPLNLSPQRRMLIITGPNMGGKSTYMRQTALIALMAYIGSYVPAQKVEIGPIDRIFTRVGAADDLASGRSTFMVEMTETANILHNATEYSLVLMDEIGRGTSTYDGLSLAWAVAENLANKIKALTLFATHYFELTQLPEKMEGVANVHLDALEHGDTIAFMHSVQDGAASKSYGLAVAALAGVPKEVIKRARQKLRELESIS
B5: MutS^CF (cysteine-free full-length E.coli MutS, N-terminal His6-tagged) (natural protein, UniProt P23909 1-853, looked up)
chain: MSAIENFDAHTPMMQQYLRLKAQHPEILLFYRMGDFYELFYDDAKRASQLLDISLTKRGASAGEPIPMAGIPYHAVENYLAKLVNQGESVAIAEQIGDPATSKGPVERKVVRIVTPGTISDEALLQERQDNLLAAIWQDSKGFGYATLDISSGRFRLSEPADRETMAAELQRTNPAELLYAEDFAEMSLIEGRRGLRRRPLWEFEIDTARQQLNLQFGTRDLVGFGVENAPRGLSAAGALLQYAKDTQRTTLPHIRSITMEREQDSIIMDAATRRNLEITQNLAGGAENTLASVLDSTVTPMGSRMLKRWLHMPVRDTRVLLERQQTIGALQDFTAGLQPVLRQVGDLERILARLALRTARPRDLARMRHAFQQLPELRAQLETVDSAPVQALREKMGEFAELRDLLERAIIDTPPVLVRDGGVIASGYNEELDEWRALADGATDYLERLEVRERERTGLDTLKVGFNAVHGYYIQISRGQSHLAPINYMRRQTLKNAERYIIPELKEYEDKVLTSKGKALALEKQLYEELFDLLLPHLEALQQSASALAELDVLVNLAERAYTLNYTSPTFIDKPGIRITEGRHPVVEQVLNEPFIANPLNLSPQRRMLIITGPNMGGKSTYMRQTALIALMAYIGSYVPAQKVEIGPIDRIFTRVGAADDLASGRSTFMVEMTETANILHNATEYSLVLMDEIGRGTSTYDGLSLAWAVAENLANKIKALTLFATHYFELTQLPEKMEGVANVHLDALEHGDTIAFMHSVQDGAASKSYGLAVAALAGVPKEVIKRARQKLRELESISPNAAATQVDGTQMSLLSVPEETSPAVEALENLDPDSLTPRQALEWIYRLKSLV
B6: MutS^wt (E.coli MutS, full-length, N-terminal His6-tagged) (natural protein, UniProt P23909 1-853, looked up)
chain: MSAIENFDAHTPMMQQYLRLKAQHPEILLFYRMGDFYELFYDDAKRASQLLDISLTKRGASAGEPIPMAGIPYHAVENYLAKLVNQGESVAICEQIGDPATSKGPVERKVVRIVTPGTISDEALLQERQDNLLAAIWQDSKGFGYATLDISSGRFRLSEPADRETMAAELQRTNPAELLYAEDFAEMSLIEGRRGLRRRPLWEFEIDTARQQLNLQFGTRDLVGFGVENAPRGLCAAGCLLQYAKDTQRTTLPHIRSITMEREQDSIIMDAATRRNLEITQNLAGGAENTLASVLDCTVTPMGSRMLKRWLHMPVRDTRVLLERQQTIGALQDFTAGLQPVLRQVGDLERILARLALRTARPRDLARMRHAFQQLPELRAQLETVDSAPVQALREKMGEFAELRDLLERAIIDTPPVLVRDGGVIASGYNEELDEWRALADGATDYLERLEVRERERTGLDTLKVGFNAVHGYYIQISRGQSHLAPINYMRRQTLKNAERYIIPELKEYEDKVLTSKGKALALEKQLYEELFDLLLPHLEALQQSASALAELDVLVNLAERAYTLNYTCPTFIDKPGIRITEGRHPVVEQVLNEPFIANPLNLSPQRRMLIITGPNMGGKSTYMRQTALIALMAYIGSYVPAQKVEIGPIDRIFTRVGAADDLASGRSTFMVEMTETANILHNATEYSLVLMDEIGRGTSTYDGLSLAWACAENLANKIKALTLFATHYFELTQLPEKMEGVANVHLDALEHGDTIAFMHSVQDGAASKSYGLAVAALAGVPKEVIKRARQKLRELESISPNAAATQVDGTQMSLLSVPEETSPAVEALENLDPDSLTPRQALEWIYRLKSLV
B7: MutS^CF/D835R (cysteine-free full-length E.coli MutS with D835R, N-terminal His6-tagged) (natural protein, UniProt P23909 1-853, looked up)
chain: MSAIENFDAHTPMMQQYLRLKAQHPEILLFYRMGDFYELFYDDAKRASQLLDISLTKRGASAGEPIPMAGIPYHAVENYLAKLVNQGESVAIAEQIGDPATSKGPVERKVVRIVTPGTISDEALLQERQDNLLAAIWQDSKGFGYATLDISSGRFRLSEPADRETMAAELQRTNPAELLYAEDFAEMSLIEGRRGLRRRPLWEFEIDTARQQLNLQFGTRDLVGFGVENAPRGLSAAGALLQYAKDTQRTTLPHIRSITMEREQDSIIMDAATRRNLEITQNLAGGAENTLASVLDSTVTPMGSRMLKRWLHMPVRDTRVLLERQQTIGALQDFTAGLQPVLRQVGDLERILARLALRTARPRDLARMRHAFQQLPELRAQLETVDSAPVQALREKMGEFAELRDLLERAIIDTPPVLVRDGGVIASGYNEELDEWRALADGATDYLERLEVRERERTGLDTLKVGFNAVHGYYIQISRGQSHLAPINYMRRQTLKNAERYIIPELKEYEDKVLTSKGKALALEKQLYEELFDLLLPHLEALQQSASALAELDVLVNLAERAYTLNYTSPTFIDKPGIRITEGRHPVVEQVLNEPFIANPLNLSPQRRMLIITGPNMGGKSTYMRQTALIALMAYIGSYVPAQKVEIGPIDRIFTRVGAADDLASGRSTFMVEMTETANILHNATEYSLVLMDEIGRGTSTYDGLSLAWAVAENLANKIKALTLFATHYFELTQLPEKMEGVANVHLDALEHGDTIAFMHSVQDGAASKSYGLAVAALAGVPKEVIKRARQKLRELESISPNAAATQVDGTQMSLLSVPEETSPAVEALENLDPRSLTPRQALEWIYRLKSLV

Assays:
SEC [1] = target: the molecule itself; assay: SEC
AUC = target: the molecule itself; assay: AUC
SEC [2] = target: the molecule itself; assay: SEC; remark: listed apart in the source

Row | Protein | stoichiometry N (SEC [1]) | stoichiometry N (AUC) | stoichiometry N (SEC [2])
1 | B1 | 2 | 4 | 
2 | B2 |  | 4 | 
3 | B3 |  | 2 | 
4 | B4 |  |  | 2
5 | B5 |  |  | 4 and 2
6 | B6 |  |  | 2 and 4
7 | B7 |  |  | 2

From publication PMC1636413 (Nucleic Acids Research, 2006)
